Measured values reported in PMC6895045, “Upregulation of tropomyosin alpha-4 chain in patients’ saliva with oral squamous cell carcinoma as demonstrated by Phage display” (Scientific Reports, 2019).

Target: T1, tropomyosin alpha-4 chain (Homo sapiens, UniProt P67936)
T1 construct: Tropomyosin alpha-4 chain, human, UniProtKB P67936; theoretical mass/pI printed as 28,522 kDa/4.67); Denatured protein on a nitrocellulose membrane; identity rests on MALDI-TOF MS of the excised spot; also called TPM4; TMP4; source: endogenous, pooled protein extracts from OSCC tissues, resolved by 2D gel electrophoresis
Test: far-Western, overlay or dot blot; Western blot of a 2D gel (pH 4-7) of OSCC tissue protein extracts on nitrocellulose, probed with scFv-D09, detected with HRP-conjugated rat anti-HA; the spot was excised from the stained gel and identified by MALDI-TOF MS
Details: one partner purified

T1 sequence (P67936 whole entry): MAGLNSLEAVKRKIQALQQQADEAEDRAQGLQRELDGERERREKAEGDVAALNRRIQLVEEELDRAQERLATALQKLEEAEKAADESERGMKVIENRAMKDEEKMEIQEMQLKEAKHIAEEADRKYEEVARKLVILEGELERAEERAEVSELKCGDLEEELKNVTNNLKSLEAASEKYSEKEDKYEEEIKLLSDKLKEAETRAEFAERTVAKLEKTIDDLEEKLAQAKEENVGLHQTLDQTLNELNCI

binding result: binds
B1: scFv-D09 (scFv, V domains shown)
VH: QVQLQESGPGLVKPSQTLSLTCAVSGGSISSSNWWSWVRQPPGKGLEWIGEIYHSGSTNYNPSLKSRVTISVDKSKNQFSLKLSSVTAADTAVYYCARQSFPGRAFDIWGQGTMVTVSS
VL: EIVMTQSPATLSVSPGERATLSCRASQSVSSNLAWYQQKPGQAPRLLIYGASTRATGIPARFSGSGSGTEFTLTISSLQSEDFAVYYCQHYNNWLWTFGQGTKVEIK
notes: also called scFv D09 antibody; scFv-D09 clone
